For assay [1], the target named is T1, human SIRPα on cells (human, UniProt P78324 31-504).
T1 construct: Whole entry
Kind of assay: flow cytometry. (In general: A flow cytometer gives signals particle by particle.)

The target of assay [2] is T2, mouse SIRPβ1 on CHO cells (mouse).
T2 construct: Whole entry
T2 chain: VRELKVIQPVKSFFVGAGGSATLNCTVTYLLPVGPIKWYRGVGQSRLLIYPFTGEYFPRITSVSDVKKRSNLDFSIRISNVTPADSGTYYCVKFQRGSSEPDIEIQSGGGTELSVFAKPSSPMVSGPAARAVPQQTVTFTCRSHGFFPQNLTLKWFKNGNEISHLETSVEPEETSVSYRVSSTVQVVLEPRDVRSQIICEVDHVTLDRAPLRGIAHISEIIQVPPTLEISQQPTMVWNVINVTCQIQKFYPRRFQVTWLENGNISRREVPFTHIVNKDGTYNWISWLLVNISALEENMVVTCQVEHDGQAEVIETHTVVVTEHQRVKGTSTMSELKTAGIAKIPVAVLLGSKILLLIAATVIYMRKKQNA
As to the kind of experiment: flow cytometry.

The target in assay [3] is T3, human SIRPβ1 isoform 1 on cells (human, UniProt O00241 30-398).
T3 construct: On CHO cells (low level), on BWZ/BW5147.G.1.4 cells (reporter cells co-express human DAP12) or on primary human myeloid cells; also called huSIRPβ1; BWZ-huSIRPβ1
T3 sequence (O00241 30-398): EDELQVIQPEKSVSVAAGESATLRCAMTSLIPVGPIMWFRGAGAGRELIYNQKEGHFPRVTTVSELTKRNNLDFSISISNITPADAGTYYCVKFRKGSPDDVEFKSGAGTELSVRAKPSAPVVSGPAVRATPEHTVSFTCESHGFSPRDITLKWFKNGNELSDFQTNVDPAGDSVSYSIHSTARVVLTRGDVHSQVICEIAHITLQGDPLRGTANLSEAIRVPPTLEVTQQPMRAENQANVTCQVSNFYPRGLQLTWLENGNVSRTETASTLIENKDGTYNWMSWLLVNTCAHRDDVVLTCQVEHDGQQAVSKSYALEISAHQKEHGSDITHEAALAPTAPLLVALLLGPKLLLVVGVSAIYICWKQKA
Kind of assay: cell binding titration; target not given.

Assay [4] deals with T1, human SIRPα on cells. Kind of assay: flow cytometry. The source holds these as a separate data set.
The target of assay [5] is T2, mouse SIRPβ1 on CHO cells. As to the kind of experiment: flow cytometry.
The target in assay [6] is T3, human SIRPβ1 isoform 1 on cells. Kind of assay: flow cytometry.
For assay [7], the target named is T4, human SIRPα domain 1 (D1) Fc fusion (human, UniProt P78324 32-149).
T4 construct: also called human SIRPα D1-Fc; Human SIRPα Fc; not shown: C-terminal human IgG1 Fc
As to the kind of experiment: Octet, IgG avid. Background: BLI is a label-free optical method that tracks binding on a fibre tip over time.

The target of assay [8] is T5, human SIRPβ1 domain 1 (D1) Fc fusion (human, UniProt O00241 30-148).
T5 construct: Made in HEK293/T cells with a heterologous signal peptide; also called Human SIRPβ1 D1-Fc; Human SIRPβ1-Fc; not shown: C-terminal human IgG1 Fc
T5 sequence (O00241 30-148 limits assumed): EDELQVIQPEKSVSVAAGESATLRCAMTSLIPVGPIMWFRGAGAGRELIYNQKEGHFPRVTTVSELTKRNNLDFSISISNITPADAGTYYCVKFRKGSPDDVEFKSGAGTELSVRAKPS
Kind of assay: Octet, Fab monovalent.
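Wherever FOB is given: antibody binding to cells detected with a PE-labelled secondary antibody, given as mean fluorescence intensity relative to background.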

B1: SB-40-19 (antibody, V domains shown)
VH: QVQLVQSGAEVKKPGASVKVSCKASGYTFTSYYMVWVRQAPGQGLEWMGIINPSSGATNYAQKFQGRVTMTTDTSTSTAYMELRSLRSDDTAVYYCARDTGEYSYSPHGMDVWGQGTTVTVSS
VL: EIVLTQSPATLSLSPGERATLSCRASQSVSSYLAWYQQKPGQAPRLLIYDSSNRATGIPARFSGSGSGTDFTLTISSLEPEDFAVYYCQQRDEHPPWTFGGGTKVEIK
notes: IgG
A word on the EC50: it is the concentration that produces a half-maximal response. Low values mean a more potent agent, high ones a less potent agent. With B1, the binding result is “no binding (tested: 1 ug/ml)” with human SIRPα on cells [1], “no binding (tested: 1 ug/ml)” in assay [2] and “no binding (tested: 100 nM)” in assay [7]. The molecule also returned a 50% effective concentration (EC50) in assay [3] of 0.713 nM. The FOB in the assay with human SIRPα on cells [4] came out at 1 fold over background; in assay [5], 2 fold over background; in assay [6], 3 fold over background.

B2: SB-1-4 (antibody, V domains shown)
VH: QVQLVESGGGVVQPGGSLRLSCAASGFTFSAYGMNWVRQAPGKGLEWVSAIRASGGATYYADSVKGRFTISRDNSKNTLYLQMNSLRAEDTAVYYCAKDFTEVVGWLGMDVWGQGTTVTVSS
VL: EIVMTQSPGTLSLSPGERATLSCRASQSVSSSYLAWYQQKPGQAPRLLIYGASSRATGIPDRFSGSGSGTDFTLTISRLEPEDFAVYYCQLLGSSPRTFGGGTKVEIK
notes: IgG
As for B2, the binding result with human SIRPα on cells [1] was “no binding (tested: 1 ug/ml)”; in assay [2], “no binding (tested: 1 ug/ml)”; in assay [7], “no binding (tested: 100 nM)”. Further, the EC50 in assay [3] was determined as 0.073 nM. In addition, the results for the FOB (in the assay with human SIRPα on cells [4]; in assay [5]; in assay [6]) were 1 fold over background, 1 fold over background and 3 fold over background, respectively.

B3: SB-2-7 Fab (Fab, V domains shown)
VH: EVQLLESGGGLVQPGGSLRLSCAASGFTFARYGMHWVRQAPGKGLEWVSAISGLAGPTYADSVKGRFTISRDNSKNTLYLQMNSLRAEDTAVYYCARDQTAAAAIWGMDVWGQGTTVTVSS
VL: EVVLTQSPGTLSLSPGERATLSCRASQSVSSSYLAWYQQKPGQAPRLLIYGASSRATGIPDRFSGSGSGTDFTLTISRLEPEDFAVYYCQQSSSHPFTFGGGTKVEIK
notes: Fab by papain digestion
One may read the Kd as the free concentration of one partner at which half of the binding sites on the other are occupied at equilibrium, for simple one-to-one binding. The molecule B3 registered a Kd in assay [8] of 6.21 nM.

B4: SB-1-4 Fab (Fab, V domains shown)
VH: QVQLVESGGGVVQPGGSLRLSCAASGFTFSAYGMNWVRQAPGKGLEWVSAIRASGGATYYADSVKGRFTISRDNSKNTLYLQMNSLRAEDTAVYYCAKDFTEVVGWLGMDVWGQGTTVTVSS
VL: EIVMTQSPGTLSLSPGERATLSCRASQSVSSSYLAWYQQKPGQAPRLLIYGASSRATGIPDRFSGSGSGTDFTLTISRLEPEDFAVYYCQLLGSSPRTFGGGTKVEIK
notes: Fab by papain digestion
Consider B4, for which the affinity in assay [8], expressed as Kd, was 43.3 nM.

B5: SB-2-10 Fab (Fab, V domains shown)
VH: EVQLLESGGGLVQPGGSLRLSCAASGFTFGSYGMHWVRQAPGKGLEWVSAISGLAGQTYADSVKGRFTISRDNSKNTLYLQMNSLRAEDTAVYYCARDQTAAAAIWGMDVWGQGTTVTVSS
VL: EIVLTQSPGTLSLSPGERATLSCRASQSVSSSYLAWYQQKPGQAPRLLIYGASSRATGIPDRFSGSGSGTDFTLTISRLEPEDFAVYYCQQSSSHPFTFGGGTKVEIK
notes: Fab by papain digestion
B5 registered a Kd in assay [8] of 12.3 nM.

B6: SB-2-11 Fab (Fab, V domains shown)
VH: QVQLVESGGGLVQPGGSLRLSCAASGFTFARYGMHWVRQAPGKGLEWVSAISGLAGPTYADSVKGRFTISRDNSKNTLYLQMNSLRAEDTAVYYCARDQTAAWGIWGMDVWGQGTTVTVSS
VL: EIVLTQSPGTLSLSPGERATLSCRASQSVSSSYLAWYQQKPGQAPRLLIYGASSRATGIPDRFSGSGSGTDFTLTISRLEPEDFAVYYCQQSSSHPFTFGGGTKVEIK
notes: Fab by papain digestion
On to B6, for which the Kd in assay [8] stood at 4.4 nM.

B7: SB-1-3 Fab (Fab, V domains shown)
VH: EVQLVESGGGLVKPGGSLRLSCAASGFTFSAYGMNWVRQAPGKGLEWVSAITSSGRSTYYADSVKGRFTISRDNSKNTLYLQMNSLRAEDTAVYYCAKDFTEVVGWLGMDVWGQGTTVTVSS
VL: EIVMTQSPGTLSLSPGERATLSCRASQSVSSSYLAWYQQKPGQAPRLLIYGASSRATGIPDRFSGSGSGTDFTLTISRLEPEDFAVYYCQLLGSSPRTFGGGTKVEIK
notes: Fab by papain digestion
B7 came in with a Kd in assay [8] of 45.4 nM.

B8: SB-2-9 Fab (Fab, V domains shown)
VH: QVQLVESGGGVVQPGRSLRLSCAASGFTFKTYGMHWVRQAPGKGLEWVAHIWYEGSNKVYADSVKGRFTISRDNSKNTLYLQMNSLRAEDTAVYYCARDQTAAAAIWGMDVWGQGTTVTVSS
VL: EVVLTQSPGTLSLSPGERATLSCRASQSVSSSYLAWYQQKPGQAPRLLIYGASSRATGIPDRFSGSGSGTDFTLTISRLEPEDFAVYYCQQSSSHPFTFGGGTKVEIK
notes: Fab by papain digestion
In turn, B8 returned a Kd in assay [8] of 19.2 nM.

B9: SB-8-16 (antibody, V domains shown)
VH: QVQLQESGPGLVKPSETLSLTCAVSGYSISAHYYWGWIRQPPGKGLEWIGSIFHSGHTYYNPSLKSRVTISVDTSKNQFSLKLSSVTAADTAVYYCARAGAMTPAGMDVWGQGTTVTVSS
VL: EIVMTQSPGTLSLSPGERATLSCRASQSVSSSYLAWYQQKPGQAPRLLIYGASNRATGIPDRFSGSGSGTDFTLTISRLEPEDFAVYYCQQVYSSPYTFGGGTKVEIK
notes: IgG
As to B9, the binding result is “no binding (tested: 1 ug/ml)” with human SIRPα on cells [1], “no binding (tested: 1 ug/ml)” in assay [2] and “no binding (tested: 100 nM)” in assay [7]. This molecule also came in with an EC50 in assay [3] of 0.147 nM. Also, the results for the FOB (in the assay with human SIRPα on cells [4]; in assay [5]; in assay [6]) were 1 fold over background, 2 fold over background and 9 fold over background, respectively.

B10: SB-1-5 Fab (Fab, V domains shown)
VH: QVQLVESGGGVVQPGRSLRLSCAASGFTFSAYGMNWVRQAPGKGLEWVSAISASGRSTFYADSVKGRFTISRDNSKNTLYLQMNSLRAEDTAVYYCAKDFTEVVGWLGMDVWGQGTTVTVSS
VL: EIVMTQSPGTLSLSPGERATLSCRASQSVSSSYLAWYQQKPGQAPRLLIYGASSRATGIPDRFSGSGSGTDFTLTISRLEPEDFAVYYCQLLGSSPRTFGGGTKVEIK
notes: Fab by papain digestion
B10: binding in assay [8] was characterised by a dissociation constant (Kd) of 82.4 nM.

B11: SB-2-9 (antibody, V domains shown)
VH: QVQLVESGGGVVQPGRSLRLSCAASGFTFKTYGMHWVRQAPGKGLEWVAHIWYEGSNKVYADSVKGRFTISRDNSKNTLYLQMNSLRAEDTAVYYCARDQTAAAAIWGMDVWGQGTTVTVSS
VL: EVVLTQSPGTLSLSPGERATLSCRASQSVSSSYLAWYQQKPGQAPRLLIYGASSRATGIPDRFSGSGSGTDFTLTISRLEPEDFAVYYCQQSSSHPFTFGGGTKVEIK
notes: IgG
For the molecule B11, the binding result in the assay with human SIRPα on cells [1] is reported as “no binding (tested: 1 ug/ml)”; in assay [2], “no binding (tested: 1 ug/ml)”; in assay [7] it was “no binding (tested: 100 nM)”. In assay [3], this molecule showed an EC50 of 0.469 nM. Also, the FOB with human SIRPα on cells [4] amounted to 1 fold over background; in assay [5] it was 2 fold over background; in assay [6], 4 fold over background.

B12: SB-2-8 Fab (Fab, V domains shown)
VH: QVQLVESGGGVVQPGRSLRLSCAASGFTFLDYGMHWVRQAPGKGLEWVSAISAFAGSTYADSVKGRFTISRDNSKNTLYLQMNSLRAEDTAVYYCARDQTAAAAIWGMDVWGQGTTVTVSS
VL: EVVLTQSPGTLSLSPGERATLSCRASQSVSSSYLAWYQQKPGQAPRLLIYGASSRATGIPDRFSGSGSGTDFTLTISRLEPEDFAVYYCQQSSSHPFTFGGGTKVEIK
notes: Fab by papain digestion
Regarding B12, in assay [8], the Kd was determined as 5.02 nM.

B13: SB-1-5 (antibody, V domains shown)
VH: QVQLVESGGGVVQPGRSLRLSCAASGFTFSAYGMNWVRQAPGKGLEWVSAISASGRSTFYADSVKGRFTISRDNSKNTLYLQMNSLRAEDTAVYYCAKDFTEVVGWLGMDVWGQGTTVTVSS
VL: EIVMTQSPGTLSLSPGERATLSCRASQSVSSSYLAWYQQKPGQAPRLLIYGASSRATGIPDRFSGSGSGTDFTLTISRLEPEDFAVYYCQLLGSSPRTFGGGTKVEIK
notes: IgG
As for B13, the binding result with human SIRPα on cells [1] is “no binding (tested: 1 ug/ml)”; in assay [2], “no binding (tested: 1 ug/ml)”; in assay [7], “no binding (tested: 100 nM)”. For the same molecule, the EC50 in assay [3] was 0.038 nM. Moreover, the FOB turned out to be 1 fold over background with human SIRPα on cells [4], 2 fold over background in assay [5] and 3 fold over background in assay [6].

B14: SB-8-14 (antibody, V domains shown)
VH: QVQLQESGPGLVKPSETLSLTCAVSGYSISPHYYWGWIRQPPGKGLEWIGSIYHSGHTYYNPSLKSRVTISVDTSKNQFSLKLSSVTAADTAVYYCARGGAMTPAGMDVWGQGTTVTVSS
VL: EIVMTQSPGTLSLSPGERATLSCRASQSVSSSYLAWYQQKPGQAPRLLIYGASNRATGIPDRFSGSGSGTDFTLTISRLEPEDFAVYYCQQVYSSPYTFGGGTKVEIK
notes: IgG
For the molecule B14, the binding result in assay [2] was “no binding (tested: 1 ug/ml)”. The same molecule showed an EC50 in assay [3] of 0.304 nM. The results for the FOB in assay [5] and in assay [6] were 1 fold over background and 7 fold over background, respectively. In addition, the Kd in assay [7] came out at 18.3 nM.

The values are drawn from patent US20250026827A1 (Alector, published 2025).
